Target: the molecule itself

B1: AmpR effector-binding domain (protein)
chain: LLERFEGGHYRDVLTVGAVGTFTVGWLLPRLEDFQARHPFIDLRLSTHNNRVDIAAEGLDYAIRFGGGAWHGTEALALFEAPLTVLCCPEVAAQLHSPADLLQHTLLRSYRADEWPLWFQAAGLPAHAPLTRSIVFDTSLAMLEAARQGVGVALAPAAMFARQLASESIRRPFATEVSTGSYWLTRLQSRGETSAMLAFRGWLLEMAAVEARGR
- Kd: < 1000 nM

From PMC5436579 (2017)
